From US20250042984A1

Columns and labels:
[1] = molecular target: VEGF-B (extracellular domain) (UniProt P49765); assay: potency ELISA, VEGF-B coated plate; 160 mg/mL formulation in glass vials, 1 month at 5 C
[2] = molecular target: VEGF-B (extracellular domain) (UniProt P49765); assay: potency ELISA, VEGF-B coated plate; 160 mg/mL formulation in glass vials, 3 months at 5 C
[3] = molecular target: VEGF-B (extracellular domain) (UniProt P49765); assay: potency ELISA, VEGF-B coated plate; 160 mg/mL formulation in glass vials, 6 months at 5 C
[4] = molecular target: VEGF-B (extracellular domain) (UniProt P49765); assay: potency ELISA, VEGF-B coated plate; 160 mg/mL formulation in glass vials, 9 months at 5 C
[5] = molecular target: VEGF-B (extracellular domain) (UniProt P49765); assay: potency ELISA, VEGF-B coated plate; 160 mg/mL formulation in glass vials, 1 month at 25 C
[6] = molecular target: VEGF-B (extracellular domain) (UniProt P49765); assay: potency ELISA, VEGF-B coated plate; 160 mg/mL formulation in glass vials, 1 month at 35 C
[7] = molecular target: VEGF-B (extracellular domain) (UniProt P49765); assay: potency ELISA, VEGF-B coated plate; 160 mg/mL formulation in glass vials, 12 months at 5 C
[8] = molecular target: VEGF-B (extracellular domain) (UniProt P49765); assay: potency ELISA, VEGF-B coated plate; 160 mg/mL formulation in glass vials, 3 months at 25 C
[9] = molecular target: VEGF-B (extracellular domain) (UniProt P49765); assay: potency ELISA, VEGF-B coated plate; 160 mg/mL formulation in glass vials, 6 months at 25 C
[10] = molecular target: VEGF-B (extracellular domain) (UniProt P49765); assay: potency ELISA, VEGF-B coated plate; 160 mg/mL formulation in glass vials, 9 months at 25 C
[11] = molecular target: VEGF-B (extracellular domain) (UniProt P49765); assay: potency ELISA, VEGF-B coated plate; 160 mg/mL formulation in glass vials, 3 months at 35 C
[12] = molecular target: VEGF-B (extracellular domain) (UniProt P49765); assay: potency ELISA, VEGF-B coated plate; 160 mg/mL formulation in glass vials, 6 months at 35 C
[13] = molecular target: VEGF-B (extracellular domain) (UniProt P49765); assay: potency ELISA, VEGF-B coated plate; 160 mg/mL formulation in glass vials, 9 months at 35 C
[14] = molecular target: VEGF-B (extracellular domain) (UniProt P49765); assay: potency ELISA, VEGF-B coated plate; 160 mg/mL formulation in glass vials, 12 months at 25 C
[15] = molecular target: VEGF-B (extracellular domain) (UniProt P49765); assay: potency ELISA, VEGF-B coated plate; 160 mg/mL formulation in glass vials, 12 months at 35 C
[16] = molecular target: VEGF-B (extracellular domain) (UniProt P49765); assay: potency ELISA, VEGF-B coated plate; 160 mg/mL formulation in glass vials, 0 months (25 C table)
[17] = molecular target: VEGF-B (extracellular domain) (UniProt P49765); assay: potency ELISA, VEGF-B coated plate; 160 mg/mL formulation in glass vials, 0 months (35 C table)
[18] = molecular target: VEGF-B (extracellular domain) (UniProt P49765); assay: potency ELISA, VEGF-B coated plate, HRP detection, 4PL and parallel line analysis; 160 mg/mL formulation in glass vials, 0 months (5 C table)

Chain of UniProt P49765 (P49765 22-207): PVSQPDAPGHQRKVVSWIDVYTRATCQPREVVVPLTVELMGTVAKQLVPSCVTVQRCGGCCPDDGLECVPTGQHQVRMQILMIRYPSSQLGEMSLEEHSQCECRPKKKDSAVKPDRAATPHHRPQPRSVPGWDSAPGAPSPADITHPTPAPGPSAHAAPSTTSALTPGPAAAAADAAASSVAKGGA

Surrogate potency for VEGF-B binding by ELISA (relative to CSL346 reference standard) (% relative to reference standard) [1]: 109 | Surrogate potency for VEGF-B binding by ELISA (relative to CSL346 reference standard) (% relative to reference standard) [2]: 96 | Surrogate potency for VEGF-B binding by ELISA (relative to CSL346 reference standard) (% relative to reference standard) [3]: 101 | Surrogate potency for VEGF-B binding by ELISA (relative to CSL346 reference standard) (% relative to reference standard) [4]: 109 | Surrogate potency for VEGF-B binding by ELISA (relative to CSL346 reference standard) (% relative to reference standard) [5]: 107 | Surrogate potency for VEGF-B binding by ELISA (relative to CSL346 reference standard) (% relative to reference standard) [6]: 115 | Surrogate potency for VEGF-B binding by ELISA (relative to CSL346 reference standard) (% relative to reference standard) [7]: 110 | Surrogate potency for VEGF-B binding by ELISA (relative to CSL346 reference standard) (% relative to reference standard) [8]: 113 | Surrogate potency for VEGF-B binding by ELISA (relative to CSL346 reference standard) (% relative to reference standard) [9]: 95 | Surrogate potency for VEGF-B binding by ELISA (relative to CSL346 reference standard) (% relative to reference standard) [10]: 101 | Surrogate potency for VEGF-B binding by ELISA (relative to CSL346 reference standard) (% relative to reference standard) [11]: 92 | Surrogate potency for VEGF-B binding by ELISA (relative to CSL346 reference standard) (% relative to reference standard) [12]: 95 | Surrogate potency for VEGF-B binding by ELISA (relative to CSL346 reference standard) (% relative to reference standard) [13]: 98 | Surrogate potency for VEGF-B binding by ELISA (relative to CSL346 reference standard) (% relative to reference standard) [14]: 136 | Surrogate potency for VEGF-B binding by ELISA (relative to CSL346 reference standard) (% relative to reference standard) [15]: 106 | Surrogate potency for VEGF-B binding by ELISA (relative to CSL346 reference standard) (% relative to reference standard) [16]: 105 | Surrogate potency for VEGF-B binding by ELISA (relative to CSL346 reference standard) (% relative to reference standard) [17]: 105 | Surrogate potency for VEGF-B binding by ELISA (relative to CSL346 reference standard) (% relative to reference standard) [18]: 105
Substance: anti-VEGFB antibody (CSL346)
